Reference: PMC8190142, “Activation of PARP2/ARTD2 by DNA damage induces conformational changes relieving enzyme autoinhibition”

What was measured:
PARP2 FL E286A [1] = target: T1, PARP2 FL E286A (human (Homo sapiens), UniProt Q9UGN5 1-583, E286A); test: fluorescence polarization; mean and SD of 3 listed KDs (22.43, 26.3, 23.94); FP buffer, salt, pH and temperature not given (as in cited ref 17); crystallization: complex purified in 20 mM Hepes pH 7.5, 300 mM NaCl, 0.5 mM TCEP; crystals; conditions: protein: recombinant; tags: His-tag construct, TEV cleaved; label: fluorescein on internal T8 of strand 2; blunt, 20 bp
T1 sequence (Q9UGN5 whole entry E286A): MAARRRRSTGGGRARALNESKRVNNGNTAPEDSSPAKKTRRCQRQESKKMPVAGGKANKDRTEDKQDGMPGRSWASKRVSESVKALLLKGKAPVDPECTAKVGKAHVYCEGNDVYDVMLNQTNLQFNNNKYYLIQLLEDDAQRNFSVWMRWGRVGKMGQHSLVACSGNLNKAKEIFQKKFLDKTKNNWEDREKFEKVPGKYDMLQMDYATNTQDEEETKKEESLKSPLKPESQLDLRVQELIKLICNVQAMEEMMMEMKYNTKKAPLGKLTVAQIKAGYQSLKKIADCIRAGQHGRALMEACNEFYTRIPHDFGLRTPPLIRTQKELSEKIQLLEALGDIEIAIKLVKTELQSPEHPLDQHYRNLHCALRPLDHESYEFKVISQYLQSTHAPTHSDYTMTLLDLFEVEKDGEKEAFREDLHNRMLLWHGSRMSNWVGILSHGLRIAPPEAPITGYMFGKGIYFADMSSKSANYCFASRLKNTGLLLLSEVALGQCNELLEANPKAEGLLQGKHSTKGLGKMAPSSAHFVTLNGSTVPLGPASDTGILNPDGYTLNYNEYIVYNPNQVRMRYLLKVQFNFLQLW

PARP2 FL E286R [2] = target: T2, PARP2 FL E286R (human (Homo sapiens), UniProt Q9UGN5 1-583, E286R); test: fluorescence polarization; mean and SD of 3 listed KDs (12.72, 25.07, 16.53); FP buffer, salt, pH and temperature not given (as in cited ref 17); crystallization: complex purified in 20 mM Hepes pH 7.5, 300 mM NaCl, 0.5 mM TCEP; crystals; conditions: protein: recombinant; tags: His-tag construct, TEV cleaved; label: fluorescein on internal T8 of strand 2; blunt, 20 bp
T2 sequence (Q9UGN5 whole entry E286R): as the sequence (Q9UGN5 whole entry E286A) above, with A286R counted along it

PARP2 FL R153A [3] = target: T3, PARP2 FL R153A (human (Homo sapiens), UniProt Q9UGN5 1-583, R153A); test: fluorescence polarization; mean and SD of 3 listed KDs (232.6, 64.05, 161.3); FP buffer, salt, pH and temperature not given (as in cited ref 17); crystallization: complex purified in 20 mM Hepes pH 7.5, 300 mM NaCl, 0.5 mM TCEP; crystals; conditions: protein: recombinant; tags: His-tag construct, TEV cleaved; label: fluorescein on internal T8 of strand 2; blunt, 20 bp
T3 sequence (Q9UGN5 whole entry R153A): as the sequence (Q9UGN5 whole entry E286A) above, with R153A, A286E counted along it

PARP2 FL G338A [4] = target: T4, PARP2 FL G338A (human (Homo sapiens), UniProt Q9UGN5 1-583, G338A); test: fluorescence polarization; mean and SD of 3 listed KDs (27.96, 29.72, 25.09); FP buffer, salt, pH and temperature not given (as in cited ref 17); crystallization: complex purified in 20 mM Hepes pH 7.5, 300 mM NaCl, 0.5 mM TCEP; crystals; conditions: protein: recombinant; tags: His-tag construct, TEV cleaved; label: fluorescein on internal T8 of strand 2; blunt, 20 bp
T4 sequence (Q9UGN5 whole entry G338A): as the sequence (Q9UGN5 whole entry E286A) above, with A286E, G338A counted along it

PARP2 FL wt [5] = target: T5, PARP2 FL wt (human (Homo sapiens), UniProt Q9UGN5 1-583); test: fluorescence polarization; mean and SD of 3 listed KDs (28.05, 21.44, 26.07); FP buffer, salt, pH and temperature not given (as in cited ref 17); crystallization: complex purified in 20 mM Hepes pH 7.5, 300 mM NaCl, 0.5 mM TCEP; crystals; conditions: protein: recombinant; tags: His-tag construct, TEV cleaved; label: fluorescein on internal T8 of strand 2; blunt, 20 bp
T5 sequence (Q9UGN5 whole entry): as the sequence (Q9UGN5 whole entry E286A) above, with A286E counted along it

PARP2 FL N129A [6] = target: T6, PARP2 FL N129A (human (Homo sapiens), UniProt Q9UGN5 1-583, N129A); test: fluorescence polarization; mean and SD of 3 listed KDs (58.73, 44.74, 72.15); FP buffer, salt, pH and temperature not given (as in cited ref 17); crystallization: complex purified in 20 mM Hepes pH 7.5, 300 mM NaCl, 0.5 mM TCEP; crystals; conditions: protein: recombinant; tags: His-tag construct, TEV cleaved; label: fluorescein on internal T8 of strand 2; blunt, 20 bp
T6 sequence (Q9UGN5 whole entry N129A): as the sequence (Q9UGN5 whole entry E286A) above, with N129A, A286E counted along it

PARP2 FL Y201F [7] = target: T7, PARP2 FL Y201F (human (Homo sapiens), UniProt Q9UGN5 1-583, Y201F); test: fluorescence polarization; mean and SD of 3 listed KDs (93.24, 46.79, 151.2); FP buffer, salt, pH and temperature not given (as in cited ref 17); crystallization: complex purified in 20 mM Hepes pH 7.5, 300 mM NaCl, 0.5 mM TCEP; crystals; conditions: protein: recombinant; tags: His-tag construct, TEV cleaved; label: fluorescein on internal T8 of strand 2; blunt, 20 bp
T7 sequence (Q9UGN5 whole entry Y201F): as the sequence (Q9UGN5 whole entry E286A) above, with Y201F, A286E counted along it

PARP2 FL E286A [8] = target: T1, PARP2 FL E286A; test: fluorescence polarization; mean and SD of 3 listed KDs (10.42, 7.271, 6.234); FP buffer, salt, pH and temperature not given (as in cited ref 17); crystallization: complex purified in 20 mM Hepes pH 7.5, 300 mM NaCl, 0.5 mM TCEP; crystals; conditions: protein: recombinant; tags: His-tag construct, TEV cleaved; label: fluorescein on internal T10; dumbbell of two hairpins (TTTT loops) with one nick
PARP2 FL G338A [9] = target: T4, PARP2 FL G338A; test: fluorescence polarization; mean and SD of 3 listed KDs (10.62, 9.907, 6.489); FP buffer, salt, pH and temperature not given (as in cited ref 17); crystallization: complex purified in 20 mM Hepes pH 7.5, 300 mM NaCl, 0.5 mM TCEP; crystals; conditions: protein: recombinant; tags: His-tag construct, TEV cleaved; label: fluorescein on internal T10; dumbbell of two hairpins (TTTT loops) with one nick
PARP2 FL wt [10] = target: T5, PARP2 FL wt; test: fluorescence polarization; mean and SD of 3 listed KDs (10.74, 7.933, 8.182); FP buffer, salt, pH and temperature not given (as in cited ref 17); crystallization: complex purified in 20 mM Hepes pH 7.5, 300 mM NaCl, 0.5 mM TCEP; crystals; conditions: protein: recombinant; tags: His-tag construct, TEV cleaved; label: fluorescein on internal T10; dumbbell of two hairpins (TTTT loops) with one nick
PARP2 FL N129A [11] = target: T6, PARP2 FL N129A; test: fluorescence polarization; mean and SD of 3 listed KDs (14.36, 8.278, 5.785); FP buffer, salt, pH and temperature not given (as in cited ref 17); crystallization: complex purified in 20 mM Hepes pH 7.5, 300 mM NaCl, 0.5 mM TCEP; crystals; conditions: protein: recombinant; tags: His-tag construct, TEV cleaved; label: fluorescein on internal T10; dumbbell of two hairpins (TTTT loops) with one nick
PARP2 FL E286R [12] = target: T2, PARP2 FL E286R; test: fluorescence polarization; mean and SD of 3 listed KDs (18.12, 7.571, 5.497); FP buffer, salt, pH and temperature not given (as in cited ref 17); crystallization: complex purified in 20 mM Hepes pH 7.5, 300 mM NaCl, 0.5 mM TCEP; crystals; conditions: protein: recombinant; tags: His-tag construct, TEV cleaved; label: fluorescein on internal T10; dumbbell of two hairpins (TTTT loops) with one nick
PARP2 FL R153A [13] = target: T3, PARP2 FL R153A; test: fluorescence polarization; mean and SD of 3 listed KDs (20.13, 10.37, 8.203); FP buffer, salt, pH and temperature not given (as in cited ref 17); crystallization: complex purified in 20 mM Hepes pH 7.5, 300 mM NaCl, 0.5 mM TCEP; crystals; conditions: protein: recombinant; tags: His-tag construct, TEV cleaved; label: fluorescein on internal T10; dumbbell of two hairpins (TTTT loops) with one nick
PARP2 FL Y201F [14] = target: T7, PARP2 FL Y201F; test: fluorescence polarization; mean and SD of 3 listed KDs (46.26, 27.47, 48.04); FP buffer, salt, pH and temperature not given (as in cited ref 17); crystallization: complex purified in 20 mM Hepes pH 7.5, 300 mM NaCl, 0.5 mM TCEP; crystals; conditions: protein: recombinant; tags: His-tag construct, TEV cleaved; label: fluorescein on internal T10; dumbbell of two hairpins (TTTT loops) with one nick
PARP2 WGR-RD-ART = PARP2 WGR-RD-ART (human (Homo sapiens), UniProt Q9UGN5 90-583); test: X-ray crystallography (2.8 A); FP buffer, salt, pH and temperature not given (as in cited ref 17); crystallization: complex purified in 20 mM Hepes pH 7.5, 300 mM NaCl, 0.5 mM TCEP; crystals; conditions: protein: recombinant; tags: His-tag construct, TEV cleaved; chain copies: 2; blunt, 16 bp; 2 duplex copies in the biological unit
PARP2 WGR-RD-ART, sequence (Q9UGN5 90-583): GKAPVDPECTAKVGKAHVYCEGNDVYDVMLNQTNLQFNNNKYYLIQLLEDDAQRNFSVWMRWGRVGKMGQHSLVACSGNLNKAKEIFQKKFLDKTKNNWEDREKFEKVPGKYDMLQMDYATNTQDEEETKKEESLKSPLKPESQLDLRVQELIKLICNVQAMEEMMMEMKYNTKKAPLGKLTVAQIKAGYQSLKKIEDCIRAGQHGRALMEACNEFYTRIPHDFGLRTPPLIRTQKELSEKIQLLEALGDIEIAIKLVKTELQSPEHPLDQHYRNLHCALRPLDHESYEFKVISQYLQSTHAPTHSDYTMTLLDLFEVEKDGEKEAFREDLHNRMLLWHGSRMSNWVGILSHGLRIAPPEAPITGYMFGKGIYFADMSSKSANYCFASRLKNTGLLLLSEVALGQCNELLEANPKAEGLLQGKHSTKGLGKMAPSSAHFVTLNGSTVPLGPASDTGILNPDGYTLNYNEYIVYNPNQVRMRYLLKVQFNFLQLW

B1: DNA-9 dsDNA (dsDNA)
DNA 1: GACGCAACCCGGAGAACACA
DNA 2: TGTGTTCTCCGGGTTGCGTC
modifications: 5'-phosphate on strand 1
PARP2 FL E286A [1]
  Kd: 24.2 ± 1.96 nM
PARP2 FL E286R [2]
  Kd: 18.1 ± 6.32 nM
PARP2 FL R153A [3]
  Kd: 153 ± 84.6 nM
PARP2 FL G338A [4]
  Kd: 27.6 ± 2.34 nM
PARP2 FL wt [5]
  Kd: 25.2 ± 3.39 nM
PARP2 FL N129A [6]
  Kd: 58.5 ± 13.7 nM
PARP2 FL Y201F [7]
  Kd: 97.1 ± 52.3 nM

## GGAAGTCTTTTGACTTCCTCGAAGCTTTTGCTTCGA (structured_DNA, 5'-phosphate) [DNA-8 nicked dumbbell]
PARP2 FL E286A [8]
  Kd: 7.98 ± 2.18 nM
PARP2 FL G338A [9]
  Kd: 9.01 ± 2.21 nM
PARP2 FL wt [10]
  Kd: 8.95 ± 1.55 nM
PARP2 FL N129A [11]
  Kd: 9.47 ± 4.41 nM
PARP2 FL E286R [12]
  Kd: 10.4 ± 6.77 nM
PARP2 FL R153A [13]
  Kd: 12.9 ± 6.35 nM
PARP2 FL Y201F [14]
  Kd: 40.6 ± 11.4 nM

B2: DNA-1 (dsDNA)
DNA 1: GACGACCCGGAGCACA
DNA 2: TGTGCTCCGGGTCGTC
modifications: 5'-phosphate on strand 1
PARP2 WGR-RD-ART
  binding result: binds
